Measurements: publication doi:10.1101/2022.08.14.503891 (bioRxiv, 2022)
“And” between values parts separate entries of the source, which are not always exact repeats. Equal values may be shown once.

What was measured:
[1] = molecular target: mɑAXL (mouse); experiment: SPR
[2] = molecular target: biotinylated lysozyme (GeneTex) (Gallus gallus (hen egg white), UniProt P00698, biotin); experiment: flow cytometry on cells
[3] = molecular target: hen-egg white lysozyme (Sigma) (Gallus gallus (hen egg white), UniProt P00698); experiment: SPR
[4] = molecular target: human Quiescin Sulfhydryl Oxidase 1 (residues 34–546 of HsQSOX1) (human, UniProt O00391); experiment: enzyme inhibition
Chain of human Quiescin Sulfhydryl Oxidase 1 (residues 34–546 of HsQSOX1) (O00391 34-546): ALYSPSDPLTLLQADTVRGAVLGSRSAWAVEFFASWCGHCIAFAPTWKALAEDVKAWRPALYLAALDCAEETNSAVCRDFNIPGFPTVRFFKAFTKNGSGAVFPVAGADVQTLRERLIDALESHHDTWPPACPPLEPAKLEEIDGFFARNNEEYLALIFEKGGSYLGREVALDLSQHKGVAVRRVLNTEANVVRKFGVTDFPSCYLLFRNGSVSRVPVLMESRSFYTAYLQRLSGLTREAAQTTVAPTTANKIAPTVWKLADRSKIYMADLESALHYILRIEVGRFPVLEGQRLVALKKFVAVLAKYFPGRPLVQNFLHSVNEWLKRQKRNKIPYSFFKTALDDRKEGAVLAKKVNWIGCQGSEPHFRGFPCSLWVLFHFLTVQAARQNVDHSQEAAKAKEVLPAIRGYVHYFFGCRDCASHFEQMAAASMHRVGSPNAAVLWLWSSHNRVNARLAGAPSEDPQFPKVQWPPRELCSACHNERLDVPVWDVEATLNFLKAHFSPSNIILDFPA

Chain of hen-egg white lysozyme (Sigma) (P00698 19-147): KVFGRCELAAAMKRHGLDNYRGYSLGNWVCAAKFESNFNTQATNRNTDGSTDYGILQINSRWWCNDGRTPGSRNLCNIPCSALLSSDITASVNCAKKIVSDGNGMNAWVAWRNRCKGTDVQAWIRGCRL
Chain of biotinylated lysozyme (GeneTex) (P00698 19-147): as above

AXL (R&D systems) (from UniProt P30530) (receptor)
Kd [1]: 0.95 nM
koff [1]: 0.000524 s⁻¹
kon [1]: 550000 M⁻¹ s⁻¹

B1: CUMAb design 6 of D44.1 formatted as scFv (scFv, V domains shown)
VH: EVQLVQSGAEVKKPGATVKISCKVSGYTFSTYWMEWVQQAPGKGLEWMGEVLPGSGSTYYAEKFQGRVTITADTSTDTAYMELSSLRSEDTAVYYCARGDGYFQHWGQGTLVTVSS
VL: EIVLTQSPDFQSVTPKEKVTITCRASQSISSNLHWYQQKPDQSPKLLIKYASQSFSGVPSRFSGSGSGTDFTLTINSLEAEDAATYYCHQSNSWPRTFGPGTKVDIK
binding result [2]: binds

B2: hɑHEWL Fab (design 1 as a human IgG1 Fab) (Fab, V domains shown)
VH: EVQLVQSGAEVKKPGATVKISCKVSGYTFSTYWMEWVQQAPGKGLEWMGEVLPGSGSTYYAEKFQGRVTITADTSTDTAYMELSSLRSEDTAVYYCARGDGYFQHWGQGTLVTVSS
VL: DIQMTQSPSSLSASVGDRVTITCRASQSISSNLNWYQQKPGKAPKLLIYYASSLQSGVPSRFSGSGSGTDFTLTISSLQPEDFATYYCQQSNSWPRTFGPGTKVDIK
Kd [3]: 42 nM and 44 nM
koff [3]: 0.16 s⁻¹
kon [3]: 3.9e+06 M⁻¹ s⁻¹

B3: murine monoclonal antibody mAb492.1 (antibody, V domains shown)
VH: QVQLKQSGPGLVAPSQSLSITCTVSGFSLTGYGVNWVRQSPGKGLEWLGMIWGDGRTDYKSALKSRLSITKDNSKSQVFLKMNSLQTDDTARYFCASDYYGSGSFAYWGQGTLVTVSA
VL: DVVMTQSHKFMSTSVGDRVSITCKASQDVSTAVAWYQQKSGQSPKLLIHSASYRYTGVPDRFTGSGSGTDFTFTISSVQAEDLAVYYCQQHYSIPLTFGAGTKLELK
binding result [4]: binds
